In patent US20050048512A1 (published 2005):
Values joined by “and” are separate entries in the source; they are usually repeats but may differ in a detail not shown here. Identical values can stand only once.

Key:
[1] = target: CD28 on human PBMC (human, UniProt P10747 19-220); assay: cell-based or functional assay
[2] = target: CD28 on monkey PBMC (monkey (cynomolgus), UniProt Q0PDN3 19-220); assay: cell-based or functional assay
[3] = target: T1, CD28 (UniProt P10747 19-152, limits assumed); assay: Biacore, CD28 on CM5 chip, 0.5 and 5 uM protein in flow
T1 construct: Purified CD28 immobilized by NHS/EDC coupling (Biacore) or hydrophobic adsorption (ELISA); also called target protein CD28

[4] = target: T1, CD28; assay: ELISA, 10 ng CD28 per well, serial dilutions of protein, anti-HA-HRP detection
[5] = target: T2, CD20 on Raji or Daudi cells (UniProt P11836 1-297, limits assumed); assay: phage clone on Raji or Daudi cells with or without 1 mg/mL Rituxan
T2 construct: whole, on cells
T2 sequence (looked up): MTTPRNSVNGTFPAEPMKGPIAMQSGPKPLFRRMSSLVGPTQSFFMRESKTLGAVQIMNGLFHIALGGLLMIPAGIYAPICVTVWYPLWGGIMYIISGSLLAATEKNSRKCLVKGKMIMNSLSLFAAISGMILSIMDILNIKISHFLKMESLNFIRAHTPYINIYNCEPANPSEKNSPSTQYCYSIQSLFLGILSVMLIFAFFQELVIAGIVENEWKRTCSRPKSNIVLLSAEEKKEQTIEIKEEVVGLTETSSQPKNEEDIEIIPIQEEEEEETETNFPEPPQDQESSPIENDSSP

B1: CD28-A10 (designed binder)
chain: CGPGRFQCESGQCVPATWVCDGDDDCADGSDEKSCATTAPTCESNQFQCGSGQCLPGTWRCDGVNDCADSSDETGCGRPGPGATSAPAACGPGRFQCNNGNCVPQTLGCDGDNDCGDSSDEANCSAPASEPPGSL
notes: LDL receptor A-domain trimer; also called CD28 10; CD28 trimer clone 10
B1 was tested, and the “IC50, PBMC assay on human cells (3H thymidine incorporation)” value [1] was 3 nM and 40 ng/ml, the “IC50, PBMC assay on monkey cells (3H thymidine incorporation)” value [2] was 7 nM and the Kd [3] was 29 nM. The “ELISA (column head; quantity not named)” value [4] was 1.7e-10.

CLPERFQCAVPGYCIPLPGVCDGVNDCQEDSDEPNCRAPGLR (designed binder) [CD20 binding sequence 8]: binds [5].

CRRNEFRCKSGHCVPQPLVCDGVRDCEDNSDEPSCGRPGPGATSAPAA (designed binder) [CD20 binding sequence 9]: binds [5].
